Drawing on article PMC10786891, “Massively parallel profiling of RNA-targeting CRISPR-Cas13d”, this text covers Kd for 35 molecules.

Positions count from the first letter of the chain named.

Sequences and labels used below:
T1: EsCas13d, nuclease-dead (Eubacterium siraeum, UniProt B0MS50, R295A;H300A;R849A;H854A)
T1 sequence: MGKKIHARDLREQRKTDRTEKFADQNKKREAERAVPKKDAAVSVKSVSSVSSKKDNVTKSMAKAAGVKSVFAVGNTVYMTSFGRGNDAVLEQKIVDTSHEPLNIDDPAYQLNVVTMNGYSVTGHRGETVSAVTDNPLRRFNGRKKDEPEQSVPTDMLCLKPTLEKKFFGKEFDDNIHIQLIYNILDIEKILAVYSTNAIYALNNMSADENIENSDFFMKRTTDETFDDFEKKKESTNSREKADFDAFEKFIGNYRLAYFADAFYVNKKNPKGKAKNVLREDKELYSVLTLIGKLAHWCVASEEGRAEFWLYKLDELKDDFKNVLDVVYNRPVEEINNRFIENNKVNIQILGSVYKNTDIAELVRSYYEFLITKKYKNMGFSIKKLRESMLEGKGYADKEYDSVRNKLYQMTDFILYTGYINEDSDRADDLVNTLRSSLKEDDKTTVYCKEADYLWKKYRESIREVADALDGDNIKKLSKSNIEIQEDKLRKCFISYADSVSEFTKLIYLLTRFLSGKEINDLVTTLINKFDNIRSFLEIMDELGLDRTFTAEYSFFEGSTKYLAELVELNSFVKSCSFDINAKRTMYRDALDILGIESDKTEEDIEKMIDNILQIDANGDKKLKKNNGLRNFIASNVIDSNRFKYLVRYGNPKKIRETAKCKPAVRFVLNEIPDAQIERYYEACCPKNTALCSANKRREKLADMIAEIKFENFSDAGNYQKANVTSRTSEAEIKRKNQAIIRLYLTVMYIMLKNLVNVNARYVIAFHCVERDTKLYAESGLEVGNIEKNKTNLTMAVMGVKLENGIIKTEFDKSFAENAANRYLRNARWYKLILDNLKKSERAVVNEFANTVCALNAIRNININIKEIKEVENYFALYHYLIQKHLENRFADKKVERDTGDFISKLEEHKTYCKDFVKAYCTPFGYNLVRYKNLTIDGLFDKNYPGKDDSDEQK

B1: target 2 MT 5'PFS CUC 3'PFS UCG (mixed)
RNA 1: CACCCGUGCAAAAUUGCAGGGGUCUAAAACCUUCUCCAAAUUGUUUCAUCCU
RNA 2: GGGAAUGGAUCCACAUCUACGAAUUCCUCAGGAUGAAACAAUUUGGAGAAGUCGAGAUCGGAAGAGCACACGU
B2: target 2 MT 5'PFS ACC 3'PFS UUG (mixed)
RNA 1: B1 RNA 1
RNA 2: B1 RNA 2 with C27A, U28C, C53U
B3: target 2 MT 5'PFS CAU 3'PFS UGU (mixed)
RNA 1: B1 RNA 1
RNA 2: B1 RNA 2 with U28A, C29U, C53G, G54U
B4: target 2 MT 5'PFS AGA 3'PFS CGC (mixed)
RNA 1: B1 RNA 1
RNA 2: B1 RNA 2 with C27A, U28G, C29A, U52C, C53G, G54C
B5: target 2 MT 5'PFS CAG 3'PFS AAC (mixed)
RNA 1: B1 RNA 1
RNA 2: B1 RNA 2 with U28A, C29G, U52A, C53A, G54C
B6: target 2 MT 5'PFS CGA 3'PFS CGA (mixed)
RNA 1: B1 RNA 1
RNA 2: B1 RNA 2 with U28G, C29A, U52C, C53G, G54A
B7: target 2 MT 5'PFS AAC 3'PFS AGA (mixed)
RNA 1: B1 RNA 1
RNA 2: B1 RNA 2 with C27A, U28A, U52A, C53G, G54A
B8: target 2 MT 5'PFS CAU 3'PFS UGC (mixed)
RNA 1: B1 RNA 1
RNA 2: B1 RNA 2 with U28A, C29U, C53G, G54C
B9: target 2 MT 5'PFS UAA 3'PFS UUU (mixed)
RNA 1: B1 RNA 1
RNA 2: B1 RNA 2 with C27U, U28A, C29A, C53U, G54U
B10: target 2 MT 5'PFS CGG 3'PFS UCG (mixed)
RNA 1: B1 RNA 1
RNA 2: B1 RNA 2 with U28G, C29G
B11: target 2 MT 5'PFS ACC 3'PFS UUC (mixed)
RNA 1: B1 RNA 1
RNA 2: B1 RNA 2 with C27A, U28C, C53U, G54C
B12: target 2 MT 5'PFS CUG 3'PFS CAC (mixed)
RNA 1: B1 RNA 1
RNA 2: B1 RNA 2 with C29G, U52C, C53A, G54C
B13: target 2 MT 5'PFS UAA 3'PFS UUC (mixed)
RNA 1: B1 RNA 1
RNA 2: B1 RNA 2 with C27U, U28A, C29A, C53U, G54C
B14: target 2 MT 5'PFS ACU 3'PFS CCA (mixed)
RNA 1: B1 RNA 1
RNA 2: B1 RNA 2 with C27A, U28C, C29U, U52C, G54A
B15: target 2 MT 5'PFS GGC 3'PFS UGA (mixed)
RNA 1: B1 RNA 1
RNA 2: B1 RNA 2 with C27G, U28G, C53G, G54A
B16: target 2 MT 5'PFS CGA 3'PFS AGA (mixed)
RNA 1: B1 RNA 1
RNA 2: B1 RNA 2 with U28G, C29A, U52A, C53G, G54A
B17: target 2 MT 5'PFS CGA 3'PFS AGC (mixed)
RNA 1: B1 RNA 1
RNA 2: B1 RNA 2 with U28G, C29A, U52A, C53G, G54C
B18: target 2 MT 5'PFS AUA 3'PFS CGA (mixed)
RNA 1: B1 RNA 1
RNA 2: B1 RNA 2 with C27A, C29A, U52C, C53G, G54A
B19: target 2 MT 5'PFS CUC 3'PFS CUU (mixed)
RNA 1: B1 RNA 1
RNA 2: B1 RNA 2 with U52C, C53U, G54U
B20: target 2 MT 5'PFS ACC 3'PFS UUU (mixed)
RNA 1: B1 RNA 1
RNA 2: B1 RNA 2 with C27A, U28C, C53U, G54U
B21: target 2 MT 5'PFS ACU 3'PFS CCG (mixed)
RNA 1: B1 RNA 1
RNA 2: B1 RNA 2 with C27A, U28C, C29U, U52C
B22: target 2 MT 5'PFS GCC 3'PFS CCA (mixed)
RNA 1: B1 RNA 1
RNA 2: B1 RNA 2 with C27G, U28C, U52C, G54A
B23: target 2 MT 5'PFS CAU 3'PFS UGA (mixed)
RNA 1: B1 RNA 1
RNA 2: B1 RNA 2 with U28A, C29U, C53G, G54A
B24: target 2 MT 5'PFS CGA 3'PFS CGC (mixed)
RNA 1: B1 RNA 1
RNA 2: B1 RNA 2 with U28G, C29A, U52C, C53G, G54C
B25: target 2 MT 5'PFS ACC 3'PFS UUA (mixed)
RNA 1: B1 RNA 1
RNA 2: B1 RNA 2 with C27A, U28C, C53U, G54A
B26: target 2 MT 5'PFS UCG 3'PFS ACU (mixed)
RNA 1: B1 RNA 1
RNA 2: B1 RNA 2 with C27U, U28C, C29G, U52A, G54U
B27: target 2 MT 5'PFS CCC 3'PFS UCC (mixed)
RNA 1: B1 RNA 1
RNA 2: B1 RNA 2 with U28C, G54C
B28: target 2 MT 5'PFS GCC 3'PFS CCG (mixed)
RNA 1: B1 RNA 1
RNA 2: B1 RNA 2 with C27G, U28C, U52C
B29: target 2 MT 5'PFS CUG 3'PFS CAU (mixed)
RNA 1: B1 RNA 1
RNA 2: B1 RNA 2 with C29G, U52C, C53A, G54U
B30: target 2 MT 5'PFS AUA 3'PFS CGC (mixed)
RNA 1: B1 RNA 1
RNA 2: B1 RNA 2 with C27A, C29A, U52C, C53G, G54C
B31: target 2 MT 5'PFS CUG 3'PFS CAG (mixed)
RNA 1: B1 RNA 1
RNA 2: B1 RNA 2 with C29G, U52C, C53A
B32: target 1 insG 3' of 1,insU 3' of 1 (mixed)
RNA 1: CACCCGUGCAAAAAUGCAGGGGUCUAAAACUGAGCGGAUAACCUCUCUAUGG
RNA 2: GGGAAUGGAUCCACAUCUACGAAUUCGUACCAUAGAGAGGUUAUCCGCUCAGUCCGAGAUCGGAAGAGCACACGU
B33: target 1 insC 3' of 16,insU 3' of 7 (mixed)
RNA 1: B32 RNA 1
RNA 2: GGGAAUGGAUCCACAUCUACGAAUUCGUACCAUAGACGAGGUUAUCUCGCUCACCGAGAUCGGAAGAGCACACGU
B34: target 1 insG 3' of 22,insG 3' of 21 (mixed)
RNA 1: B32 RNA 1
RNA 2: GGGAAUGGAUCCACAUCUACGAAUUCGUACGCGAUAGAGAGGUUAUCCGCUCACCGAGAUCGGAAGAGCACACGU
B35: target 1 insC 3' of 11,insU 3' of 7 (mixed)
RNA 1: B32 RNA 1
RNA 2: B33 RNA 2 with C37G, G38A, A39G, G41U, U42C

The data set has as its target T1, EsCas13d, nuclease-dead. The data set is described as follows: crRNA (strand 1, pre-loaded); Mg2+; 40 mM Tris-HCl pH 7.5, 150 mM NaCl, 6 mM MgCl2, 1 mM DTT, 0.1% Tween-20, 0.2 mg/ml BSA; 25 C; 10 min per concentration, then washed. The conditions noted are these: tags: His6-TwinStrep-SUMO cleaved; N-terminal SNAP kept (SNAP-Surface 488); label: 3' end held by stalled T7 RNA polymerase.
For orientation: Kd means the free concentration of one partner at which half of the binding sites on the other are occupied at equilibrium, for simple one-to-one binding. Low readings indicate tighter binding, high ones weaker binding. B1 showed a Kd of 4 ± 0.8 nM.
The same measure for B2: 11.2 ± 2.2 nM; for B3: 4.4 ± 0.5 nM.
The value for B4 was 6.5 ± 1.2 nM.
The same measure for B5: 6.1 ± 1.4 nM; for B6: 5.3 ± 1 nM; for B7: 3.3 ± 0.8 nM.
B8 registered a Kd of 3.1 ± 0.5 nM.
B9 yielded a Kd of 13.4 ± 1.9 nM.
The value for B10 was 7 ± 0.6 nM; that for B11 was 8.2 ± 1.4 nM; that for B12 was 3.7 ± 0.4 nM.
The value for B13 was 14 ± 2.1 nM; that for B14 was 7.3 ± 1.8 nM; that for B15 was 18 ± 4 nM.
B16 yielded a Kd of 4.6 ± 0.9 nM.
B17 displayed a Kd of 7.8 ± 1.1 nM.
The value for B18 was 9.5 ± 2.1 nM; that for B19 was 2.47 ± 0.18 nM; that for B20 was 7.8 ± 0.9 nM.
The value for B21 was 6.2 ± 0.6 nM; that for B22 was 20 ± 4 nM; that for B23 was 4.5 ± 1.4 nM.
The same measure for B24: 5.6 ± 1.5 nM.
Regarding B25, the Kd was determined as 9.6 ± 2.8 nM.
The value for B26 was 20 ± 4 nM; that for B27 was 2.1 ± 0.5 nM; that for B28 was 18 ± 2 nM.
The same measure for B29: 2.29 ± 0.24 nM; for B30: 7.8 ± 0.8 nM; for B31: 2.33 ± 0.21 nM.
The value for B32 was 10.5 ± 1.2 nM.
In turn, B33 gave a Kd of 75 ± 8 nM.
The same measure for B34: 68 ± 24 nM.
The value for B35 was 39 ± 5 nM.
